Data taken from patent US20140162285A1, “Methods of Modulating Vesicular Trafficking” (The General Hospital Corporation, priority 2009, published 2014).

Target: T1, ARNO Sec7-domain (Homo sapiens, UniProt Q99418)
T1 construct: iii) 61-252aa, Sec7 domain; made in house; host or cells: E. coli BL21(DE3)
T1 sequence (Q99418 61-252): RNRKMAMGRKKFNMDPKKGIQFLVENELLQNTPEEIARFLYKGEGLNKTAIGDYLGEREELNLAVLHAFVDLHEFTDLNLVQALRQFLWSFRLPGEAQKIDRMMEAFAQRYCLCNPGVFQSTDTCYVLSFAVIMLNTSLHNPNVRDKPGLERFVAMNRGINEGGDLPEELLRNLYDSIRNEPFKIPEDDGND
Test: GST pull-down of in vitro translated a2N with ARNO Sec7-domain
Type: binding
Conditions: Western blot anti-a2N
Experimental: The purified recombinant GST-ARNO(wt) and GST-tagged ARNO domain constructs ([…]) were incubated with 10 μl of in vitro translated 6His-a2N recombinant protein at 4° C. for 2 hours in 500 μl of binding buffer (10 mM HEPES, 1 mM EDTA, 1 mM DTT, 100 mM NaCl, 10% glycerol, 0.1% NP-40) with gentle rotation. Then the interacting recombinant proteins were immobilized on glutathione beads by incubation with 50 μl of 50% glutathione Sepharose 4B slurry for 2 hours at 4° C. The beads were collected by centrifugation and washed 5 times with 500 μl ice-cold binding buffer. Interacting proteins were eluted by boiling in SDS-PAGE sample buffer for 10 min at 95° C., resolved by SDS-PAGE and analyzed by Western blotting using polyclonal anti-a2N antibodies. […]
To examine the ability of these well-defined and functionally distinct domains of ARNO to interact with a2N1-402, full-length ARNO(wt) and its four domains were cloned separately for bacterial expression of recombinant proteins (FIG. 3). […] Interacting proteins were detected by western blot analysis with a2-specific antibodies as described above.

B1: a2N: recombinant N-terminal cytosolic tail, amino acid residues 1-402 of mouse V-ATPase a2-subunit (protein)
chain: MGSLFRSESMCLAQLFLQSGTAYECLSALGEKGLVQFRDLNQNVSSFQRKFVGEVKRCEELERILVYLVQEITRADIPLPEGEASPPAPPLKHVLEMQEQLQKLEVELREVTKNKEKLRKNLLELVEYTHMLRVTKTFLKRNVEFEPTYEEFPALENDSLLDYSCMQRLGAKLGFVSGLIQQGRVEAFERMLWRACKGYTIVTYAELDECLEDPETGEVIKWYVFLISFWGEQIGHKVKKICDCYHCHIYPYPNTAEERREIQEGLNTRIQDLYTVLHKTEDYLRQVLCKAAESVCSRVVQVRKMKAIYHMLNMCSFDVTNKCLIAEVWCPEVDLPGLRRALEEGSRESGATIPSFMNTIPTKETPPTLIRTNKFTEGFQNIVDAYGVGSYREVNPALFTII
modifications: left off: small tags and cut ends
notes: recombinant N-terminal cytosolic tail, amino acid residues 1-402 of mouse V-ATPase a2-subunit
  interaction of a2N with ARNO Sec7-domain: interacts strongly
